Data from patent US20040096901A1.
Where “and” joins values, the source holds several entries; their conditions need not be identical. Equal entries are not always repeated.

Target: CD45 antigen (leukocyte common antigen), human, on cells (human) (UniProt P08575)
Assay: cell-based or functional assay

- % of Inhibition of primary MLR (responder #211 CD4, stimulator #219 CD3), 10 ug/ml mAb: 63.5%
- % of Inhibition of primary MLR (responder #220 CD4, stimulator #219 CD3 depl.), 10 ug/ml mAb: 63.1%
- % of Inhibition of primary MLR (responder #227 CD4, stimulator #220 CD3 depl.), 10 ug/ml mAb: 66%
- % of Inhibition of primary MLR (responder #229 CD4, stimulator #219 CD3 depl.), 10 ug/ml mAb: 50.8%
- IC50 for the inhibition of primary MLR (cellular activity IC50): 0.87 nM and 0.13 µg/ml
B1: chimeric anti-CD45RO/RB mAb "candidate mAb" (antibody, human IgG1, kappa, V domains shown)
VH: EVQLQQSGPELVKPGASVKMSCKASGYTFTNYIIHWVKQEPGQGLEWIGYFNPYNHGTKYNEKFKGRATLTADKSSNTAYMDLSSLTSEDSAIYYCARSGPYAWFDTWGQGTTVTVSS
VL: DILLTQSPAILSVSPGERVSFSCRASQNIGTSIQWYQQRTNGSPRLLIRSSSESISGIPSRFSGSGSGTDFTLSINSVESEDIADYYCQQSNTWPFTFGSGTKLEIKR
